Ends that are not written are not given here.

The target of experiment [1] is human OGF receptor (OGFr), native, in nuclear preparations of human cells and tissues (human) (UniProt Q9NZT2). The experiment is described as follows: competition with [3H]-[Met5]-enkephalin, PANC-1 nuclear homogenates; IC50/Kd.
The target of experiment [2] is T1, human OGF receptor (OGFr), native, in nuclear preparations of human cells and tissues (human, UniProt Q9NZT2 1-662, limits assumed).
T1 construct: Native receptor in nuclear homogenates (placenta, PANC-1, MIA PaCa-2, Capan-1, BxPC-3, pancreatic tissue, head and neck tissue); also called zeta opioid receptor; receptor for OGF
T1 chain: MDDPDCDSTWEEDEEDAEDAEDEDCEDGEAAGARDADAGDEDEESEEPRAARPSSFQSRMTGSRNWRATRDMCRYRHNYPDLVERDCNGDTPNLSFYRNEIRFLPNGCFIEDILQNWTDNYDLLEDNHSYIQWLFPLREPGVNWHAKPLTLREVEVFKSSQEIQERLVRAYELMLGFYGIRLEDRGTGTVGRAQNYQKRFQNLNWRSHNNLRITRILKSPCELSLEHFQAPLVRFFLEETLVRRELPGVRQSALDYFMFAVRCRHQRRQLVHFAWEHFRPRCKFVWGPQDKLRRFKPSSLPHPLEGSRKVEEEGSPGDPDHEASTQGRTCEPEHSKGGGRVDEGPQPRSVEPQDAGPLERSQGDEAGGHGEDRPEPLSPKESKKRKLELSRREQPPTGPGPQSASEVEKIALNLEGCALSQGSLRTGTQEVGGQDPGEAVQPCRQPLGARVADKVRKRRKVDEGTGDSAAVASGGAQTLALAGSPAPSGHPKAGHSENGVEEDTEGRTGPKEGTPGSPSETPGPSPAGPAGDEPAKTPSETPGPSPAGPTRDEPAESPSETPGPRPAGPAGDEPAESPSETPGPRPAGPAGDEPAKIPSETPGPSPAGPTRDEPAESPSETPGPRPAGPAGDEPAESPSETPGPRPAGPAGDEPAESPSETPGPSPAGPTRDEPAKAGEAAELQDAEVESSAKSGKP
Put plainly: radioligand saturation binding, nuclear-enriched fraction of human placenta.

Experiment [3] has as its target T2, 12-GST fusion protein (GST fused to rat OGFr, all 580 amino acids, from clone #12) (rat, UniProt Q9QXY4 1-580).
T2 construct: The order GST then OGFr follows the pGEX-3X vector; also called purified fusion protein from the rat OGFr cDNA clone #12; not shown: glutathione-S-transferase (GST) of the pGEX-3X expression vector
T2 sequence: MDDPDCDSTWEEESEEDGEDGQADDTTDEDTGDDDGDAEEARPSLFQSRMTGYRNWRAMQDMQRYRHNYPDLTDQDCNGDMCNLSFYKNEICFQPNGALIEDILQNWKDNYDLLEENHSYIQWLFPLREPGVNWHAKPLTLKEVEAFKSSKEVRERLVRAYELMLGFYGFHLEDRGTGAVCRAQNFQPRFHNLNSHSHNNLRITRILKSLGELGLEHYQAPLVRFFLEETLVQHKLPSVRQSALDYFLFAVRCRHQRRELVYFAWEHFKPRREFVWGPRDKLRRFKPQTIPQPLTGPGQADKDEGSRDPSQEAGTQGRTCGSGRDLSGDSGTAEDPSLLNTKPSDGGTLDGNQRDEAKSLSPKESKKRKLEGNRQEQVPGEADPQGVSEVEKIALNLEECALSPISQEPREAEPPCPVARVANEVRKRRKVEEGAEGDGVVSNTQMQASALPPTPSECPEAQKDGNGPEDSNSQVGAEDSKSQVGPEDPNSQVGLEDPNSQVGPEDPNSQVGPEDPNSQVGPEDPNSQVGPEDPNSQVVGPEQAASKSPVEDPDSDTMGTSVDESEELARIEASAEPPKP
The experiment is described as follows: [3H]-[Met5]-enkephalin saturation binding, filter assay, purified 12-GST fusion protein, 22 C. As to the method:
Fusion proteins (80-120 ng/tube) were incubated for 30 min with shaking at 22° C. Non-specific binding was measured in the presence of unlabeled [Met⁵]-enkephalin. In some assays, NTX (10⁻³ M) was added to the reaction mixture to monitor opioid antagonist blockade of binding. Binding was terminated by filtering homogenates through Whatman GF/B filters. Saturation isotherms were plotted using GraphPad Prism software (GraphPad Software Inc., San Diego, Calif.).

Experiment [4] concerns the target T1, human OGF receptor (OGFr), native, in …. Put plainly: competition with [3H]-[Met5]-enkephalin, PANC-1 nuclear homogenates; IC50/Kd. How it is done:
Each concentration was run in triplicate and every compound was tested twice.
Competition experiments using 1 or 2 nM [³H]

As to ICI-174, 568 (peptide), the half-inhibitory concentration (IC50) (in general, the concentration that gives 50% inhibition) in experiment [1] is above 100 µM.

The molecule [D-Pen^2, Pen^5]-enkephalin (peptide) gave a half-maximal inhibitory concentration (IC50) in experiment [1] above 100 µM.

In turn, “[D-Ala^2, N-Me-Phe^4, Gly^5-ol]-enkephalin (peptide)” displayed a 50% inhibitory concentration (IC50) in experiment [1] above 100 µM.

B1: [Met^5]-enkephalin (opioid growth factor) (peptide, UniProt P01210 100-104, looked up)
peptide: YGGFM
modifications: also: [3H] label on radioligand form
notes: domain: [Met^5]-enkephalin; only the pentapeptide stood in the assay; also called OGF; [^3H]-[Met^5]-enkephalin
Regarding B1, the dissociation constant (Kd) (commonly the concentration at which binding is half-saturated) in experiment [2] was 0.0123 µM; in experiment [3] it was 0.0028 µM.

In turn, YGGFL (peptide, UniProt P01210 230-234, looked up, domain: Leucine enkephalin) [Leucine enkephalin] yielded an IC50 in experiment [4] above 100 µM.

B2: dynorphin A1-8 (peptide, UniProt P01213 207-214, looked up)
peptide: YGGFLRRI
notes: domain: Dynorphin A1-8; 1-8 counts on dynorphin A, not on the precursor
B2 came in with an IC50 in experiment [4] above 100 µM.

The values are drawn from patent publication US20080050363A1 (published 2008).
